Reference: publication PMC5617235

What was measured:
[1] = target: T. congolense fructose-1,6-bisphosphate aldolase, wild type (Trypanosoma congolense); experiment: SEC; analytical SEC of TcoALD alone; Superdex 200 HR 10/30, 50 mM MES, 500 mM NaCl, pH 6.7; calibrated with the Bio-Rad standard
[2] = target: T. congolense fructose-1,6-bisphosphate aldolase, wild type (Trypanosoma congolense); experiment: crystal structure; (Nb474-TcoALD)4 complex, His tags of both retained; 100 mM sodium cacodylate pH 6.5, 200 mM magnesium acetate, 10% PEG 8000, 20°C; 2.57 Å
[3] = target: T. congolense fructose-1,6-bisphosphate aldolase, wild type (Trypanosoma congolense); experiment: SEC; analytical SEC of 1 mg TcoALD mixed with Nb474 at Nb474:TcoALD ratios 1:4, 2:4, 3:4, 4:4, 6:4, incubated at least 1 h; Superdex 200 HR 10/30, 50 mM MES, 500 mM NaCl, pH 6.7; peaks analysed by SDS-PAGE
[4] = target: T. congolense fructose-1,6-bisphosphate aldolase A77E mutant (Trypanosoma congolense); experiment: SPR; SPR sandwich assay: immobilised Nb474 on CM5 saturated with a TcoALD variant, then Nb474 (0.5 nM to 1.0 uM) injected as second analyte; 20 mM HEPES, 150 mM NaCl, 0.005% Tween, 3.4 mM EDTA, pH 7.4; 1:1 Langmuir model for WT and A77E

Row | Molecule | stoichiometry N [1] | stoichiometry N [2] | stoichiometry N [3] | Kd [4] [nM] | koff [4] [s⁻¹] | kon [4] [M⁻¹ s⁻¹] | stoichiometry N (Nb474 per TcoALD monomer) [3]
1 | T. congolense fructose-1,6-bisphosphate aldolase, wild type (enzyme) | 2 | 4 | 4 |  |  |  | 
2 | Nanobody Nb474, C-terminally His-tagged (VHH) VHH: QVQLQESGGGLVQPGGSLRLSCAASETALTYYAIGWFRQAPGKEREGVSCISRINSGSGARTDYADSVKGRFTISRDDAKNTVTLQMNSLEPEDTARYYCALDTTDRYDSANGRYYCTISSDTYDYWGQGTQVTVSS |  |  |  | 0.067 | 0.000141 | 2.11e+06 | 1
